Literature values as cited in US20020188108.

Target: T1, IF3-His6 (translation initiation factor 3) (Escherichia coli) (UniProt P0A707)
T1 sequence: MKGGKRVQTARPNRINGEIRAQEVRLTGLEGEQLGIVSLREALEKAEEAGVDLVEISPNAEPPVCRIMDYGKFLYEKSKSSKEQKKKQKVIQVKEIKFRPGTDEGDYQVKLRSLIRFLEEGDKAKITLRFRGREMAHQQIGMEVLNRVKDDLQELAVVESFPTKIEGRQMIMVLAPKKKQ
Settings: CITED Tapprich et al. 1989

## 16S rRNA G791A in 30S subunit
  binding signal (fold reduction): 10
